B1: MGC27345 (parent)
chain: KYMPHLCQDSSGEVSCQCQLHPPR
B2: JUNB (parent)
chain: FVKALDDLHKMNHVTPPNVSLGAT

Variants of: B1
Experiment: protein stability index of a GFP-peptide fusion (GPS, HEK-293T) (PSI 1-6); higher = more stable
Settings: c terminus: a fixed tail appended
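Also: lentivirally expressed fusions sorted by FACS into six bins by GFP to DsRed ratio, PSI derived from sequencing read proportions per bin multiplied by bin number.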

Variant | protein stability index
KYMPHLCQDRSGEVSCQCQLHPPR | 1
KYMPHLCQDSHGEVSCQCQLHPPR | 2.16
KYMPHLCQDSSGEVSCQCQLHPPF | 3.39
KYMPHLCQDSSFEVSCQCQLHPPR | 1.34
KYMPTLCQDSSGEVSCQCQLHPPR | 2.21
KYMPHLCQDSSGECSCQCQLHPPR | 2.94
KYMPHLCQDSSGEVSMQCQLHPPR | 2.9
KYMPHLCQDSSGCVSCQCQLHPPR | 2.14
KYMPHLCQDSSGEVSCQCYLHPPR | 2.71
KYMPHLCQDSSGEFSCQCQLHPPR | 1.94
KQMPHLCQDSSGEVSCQCQLHPPR | 1.78
KYMPHLCQDSSGEVSCQCQLHRPR | 2.62
KYMPHLCQDSSGEVSCQCQLHPPK | 3.26
KYMPHLCQDDSGEVSCQCQLHPPR | 2.94
KYMPHLCQDSSGEVSCQCQLHPCR | 3.96
KYMPHLCQDSSGEVSVQCQLHPPR | 2.85
KYMPHLCQDSSGEVSCQCQLLPPR | 1.51
KYMPHLCQDSSGENSCQCQLHPPR | 2.46
KYMPHLCQDSSGEVSCQCQLHLPR | 2.73
KYMPHLCQDSSGEVSCMCQLHPPR | 3.13
KYMPHLKQDSSGEVSCQCQLHPPR | 1.9
KYMPHLCQDSSGEVSGQCQLHPPR | 4.1
KYMPHLCNDSSGEVSCQCQLHPPR | 2.54
KYMPHLCQDSSGEVSCQAQLHPPR | 3.46
KYMPHLCQDSSGEVSCQCQLHPPT | 3.99

Variants of: B2
Experiment: as above
Settings: c terminus: a fixed tail appended

Variant | protein stability index
AVKALDDLHKMNHVTPPNVSLGAT | 4.1
CVKALDDLHKMNHVTPPNVSLGAT | 2.61
DVKALDDLHKMNHVTPPNVSLGAT | 4.6
EVKALDDLHKMNHVTPPNVSLGAT | 4.27
GVKALDDLHKMNHVTPPNVSLGAT | 4.05
HVKALDDLHKMNHVTPPNVSLGAT | 4
IVKALDDLHKMNHVTPPNVSLGAT | 2.84
KVKALDDLHKMNHVTPPNVSLGAT | 3.92
LVKALDDLHKMNHVTPPNVSLGAT | 3.29
MVKALDDLHKMNHVTPPNVSLGAT | 3.6
NVKALDDLHKMNHVTPPNVSLGAT | 3.95
PVKALDDLHKMNHVTPPNVSLGAT | 4.57
QVKALDDLHKMNHVTPPNVSLGAT | 3.52
RVKALDDLHKMNHVTPPNVSLGAT | 4.38
SVKALDDLHKMNHVTPPNVSLGAT | 4.09
TVKALDDLHKMNHVTPPNVSLGAT | 4.37
VVKALDDLHKMNHVTPPNVSLGAT | 3.59
WVKALDDLHKMNHVTPPNVSLGAT | 2.51
YVKALDDLHKMNHVTPPNVSLGAT | 1.54
FAKALDDLHKMNHVTPPNVSLGAT | 2.96
FCKALDDLHKMNHVTPPNVSLGAT | 2.96
FDKALDDLHKMNHVTPPNVSLGAT | 4.22
FEKALDDLHKMNHVTPPNVSLGAT | 3.98

Variant | protein stability index
FFKALDDLHKMNHVTPPNVSLGAT | 2.03
FGKALDDLHKMNHVTPPNVSLGAT | 3.5
FHKALDDLHKMNHVTPPNVSLGAT | 3.07
FIKALDDLHKMNHVTPPNVSLGAT | 2.22
FKKALDDLHKMNHVTPPNVSLGAT | 3.07
FLKALDDLHKMNHVTPPNVSLGAT | 2.79
FMKALDDLHKMNHVTPPNVSLGAT | 2.7
FNKALDDLHKMNHVTPPNVSLGAT | 4.52
FPKALDDLHKMNHVTPPNVSLGAT | 3.05
FQKALDDLHKMNHVTPPNVSLGAT | 3.18
FRKALDDLHKMNHVTPPNVSLGAT | 3.54
FSKALDDLHKMNHVTPPNVSLGAT | 4.07
FTKALDDLHKMNHVTPPNVSLGAT | 3.33
FWKALDDLHKMNHVTPPNVSLGAT | 2.47
FYKALDDLHKMNHVTPPNVSLGAT | 2.51
FVAALDDLHKMNHVTPPNVSLGAT | 1.69
FVCALDDLHKMNHVTPPNVSLGAT | 3.29
FVDALDDLHKMNHVTPPNVSLGAT | 2.23
FVEALDDLHKMNHVTPPNVSLGAT | 2.44
FVFALDDLHKMNHVTPPNVSLGAT | 3.15
FVGALDDLHKMNHVTPPNVSLGAT | 2.12
FVHALDDLHKMNHVTPPNVSLGAT | 2.23
FVIALDDLHKMNHVTPPNVSLGAT | 1.98

Variant | protein stability index
FVLALDDLHKMNHVTPPNVSLGAT | 1.66
FVMALDDLHKMNHVTPPNVSLGAT | 1.74
FVNALDDLHKMNHVTPPNVSLGAT | 1.86
FVPALDDLHKMNHVTPPNVSLGAT | 2.97
FVQALDDLHKMNHVTPPNVSLGAT | 1.94
FVRALDDLHKMNHVTPPNVSLGAT | 1.76
FVSALDDLHKMNHVTPPNVSLGAT | 2.72
FVTALDDLHKMNHVTPPNVSLGAT | 2.02
FVVALDDLHKMNHVTPPNVSLGAT | 1.96
FVWALDDLHKMNHVTPPNVSLGAT | 2.47
FVYALDDLHKMNHVTPPNVSLGAT | 1.73
FVKCLDDLHKMNHVTPPNVSLGAT | 1.63
FVKDLDDLHKMNHVTPPNVSLGAT | 2.24
FVKELDDLHKMNHVTPPNVSLGAT | 2.13
FVKFLDDLHKMNHVTPPNVSLGAT | 1.15
FVKGLDDLHKMNHVTPPNVSLGAT | 2.68
FVKHLDDLHKMNHVTPPNVSLGAT | 2.03
FVKILDDLHKMNHVTPPNVSLGAT | 2.12
FVKKLDDLHKMNHVTPPNVSLGAT | 1.58
FVKLLDDLHKMNHVTPPNVSLGAT | 2.69
FVKMLDDLHKMNHVTPPNVSLGAT | 1.58
FVKNLDDLHKMNHVTPPNVSLGAT | 1.66
FVKPLDDLHKMNHVTPPNVSLGAT | 2.6
